The target in data set [1] is DdrB E51A mutant with N-terminal 6His tag (Deinococcus radiodurans) (UniProt Q9RY80). In words: AUC; sedimentation velocity, 20°C, 42 krpm, 100 mM KCl, 20 mM Tris pH 8.0, loading concentrations 10 µM to 0.64 mM, absorbance and interference optics, no DNA; pentamer and assemblies of pentamers.
In data set [2] the target is DdrB R83A mutant with N-terminal 6His tag (Deinococcus radiodurans) (UniProt Q9RY80). The data set is described as above.
The target in data set [3] is T1, DdrB W66A (Deinococcus radiodurans, UniProt Q9RY80 1-144, W66A).
T1 sequence: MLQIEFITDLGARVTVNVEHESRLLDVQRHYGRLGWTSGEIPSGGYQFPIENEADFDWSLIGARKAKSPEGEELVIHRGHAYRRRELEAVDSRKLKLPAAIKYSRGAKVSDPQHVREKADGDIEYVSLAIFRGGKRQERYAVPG
In words: fluorescence anisotropy; per pentamer; saturating anisotropy fixed to wild-type value; FP: 20 mM Tris pH 8.0, 100 mM KCl, 200 nM DNA; EMSA: same plus 15% glycerol, 10 uM DNA; temperature not stated. Conditions: protein: recombinant; tags: N-terminal 6His; chain copies: 5; label: 5' 6-FAM.

The target in data set [4] is T2, DdrB E51A (Deinococcus radiodurans, UniProt Q9RY80 1-144, E51A).
T2 sequence: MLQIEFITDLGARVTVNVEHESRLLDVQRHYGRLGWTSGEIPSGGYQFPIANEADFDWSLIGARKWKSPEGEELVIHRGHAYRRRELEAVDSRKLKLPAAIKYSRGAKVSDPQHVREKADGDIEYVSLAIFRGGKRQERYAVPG
The experiment in a line: fluorescence anisotropy; 3 uM pentamer; full DNA binding activity retained; FP: 20 mM Tris pH 8.0, 100 mM KCl, 200 nM DNA; EMSA: same plus 15% glycerol, 10 uM DNA; temperature not stated. The conditions noted are these: protein: recombinant; tags: N-terminal 6His; chain copies: 5; label: 5' 6-FAM.

Data set [5] addresses T3, DdrB1-144 (Deinococcus radiodurans, UniProt Q9RY80 1-144).
T3 sequence: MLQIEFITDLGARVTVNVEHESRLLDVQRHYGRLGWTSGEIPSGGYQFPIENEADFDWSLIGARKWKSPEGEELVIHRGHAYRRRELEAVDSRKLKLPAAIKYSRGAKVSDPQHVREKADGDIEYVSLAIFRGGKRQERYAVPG
The experiment in a line: fluorescence anisotropy; per pentamer, A+B=AB model; FP: 20 mM Tris pH 8.0, 100 mM KCl, 200 nM DNA; EMSA: same plus 15% glycerol, 10 uM DNA; temperature not stated. The conditions noted are these: protein: recombinant; tags: N-terminal 6His (pET151, not cleaved); chain copies: 5; label: 5' 6-FAM.

For data set [6], the target named is T3, DdrB1-144. The experiment in a line: EMSA; pentamer, decamer and penta-decamer complexes; 10 uM DNA; FP: 20 mM Tris pH 8.0, 100 mM KCl, 200 nM DNA; EMSA: same plus 15% glycerol, 10 uM DNA; temperature not stated. Conditions: protein: recombinant; tags: N-terminal 6His (pET151, not cleaved); chain copies: 5.
The target of data set [7] is T4, DdrB1-144, tag removed (Deinococcus radiodurans, UniProt Q9RY80 1-144).
T4 sequence: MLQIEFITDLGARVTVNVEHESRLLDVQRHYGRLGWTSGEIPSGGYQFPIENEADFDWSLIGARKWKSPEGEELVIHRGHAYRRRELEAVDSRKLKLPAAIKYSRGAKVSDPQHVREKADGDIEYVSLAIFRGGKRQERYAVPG
In words: X-ray crystallography 2.30 A; MES pH 5.6, KCl, 10 mM MgCl2, PEG 8000; FP: 20 mM Tris pH 8.0, 100 mM KCl, 200 nM DNA; EMSA: same plus 15% glycerol, 10 uM DNA; temperature not stated. Conditions: protein: recombinant; tags: 6His removed by TEV; chain copies: 5.

In data set [8] the target is T2, DdrB E51A. The experiment in a line: EMSA; single pentamer-DNA complex only, no higher-order shifts; 10 uM DNA; FP: 20 mM Tris pH 8.0, 100 mM KCl, 200 nM DNA; EMSA: same plus 15% glycerol, 10 uM DNA; temperature not stated. The conditions noted are these: protein: recombinant; tags: N-terminal 6His; chain copies: 5.
Data set [9] concerns the molecule itself. The experiment in a line: crystal structure; 740 µM DdrBDr with 160 µM 50b poly dT, hanging drop at 20°C; 2.30 Å; pentamer in the asymmetric unit, pentamer-pentamer interface by crystallographic symmetry.

In data set [1], “DdrB E51A mutant with N-terminal 6His tag (from UniProt Q9RY80 1-144) (domain or fragment)” registered a percent of the total signal from the pentamer of 88% and a stoichiometry N of 5.
As to “DdrB R83A mutant with N-terminal 6His tag (from UniProt Q9RY80 1-144) (domain or fragment)”, in data set [2], the percent of the total signal from the pentamer is 92% and the stoichiometry N is 5.
In the case of TTTTTTTTTTTTTTTTTTTT (ssDNA) [20b poly dT], the figures for the equilibrium dissociation constant (Kd) in data set [3] and in data set [5] were 51 µM and 3.6 µM, respectively. The binding result in data set [4] is “binds”.
For TTTTTTTTTTTTTTTTTTTTTTTTTTTTTTTTTTTTTTTTTTTTTTTTTT (ssDNA) [50b poly dT], the binding result in [6], in data set [7] and in data set [8] was “binds” each time.

B1: DdrB1-144 from Deinococcus radiodurans, 6His tag removed (protein used in crystallography) (domain or fragment, UniProt Q9RY80 1-144, looked up)
chain: MLQIEFITDLGARVTVNVEHESRLLDVQRHYGRLGWTSGEIPSGGYQFPIENEADFDWSLIGARKWKSPEGEELVIHRGHAYRRRELEAVDSRKLKLPAAIKYSRGAKVSDPQHVREKADGDIEYVSLAIFRGGKRQERYAVPG
notes: DdrB, Deinococcus radiodurans, residues 1-144 (stop codon introduced following residue 144), construct MJ4748 in pET151/D-Topo; Pentamer; Tag cleaved with TEV protease; also called DdrBDr; not shown: His6, N-terminal, cleaved
As for B1, the “stoichiometry N” value in data set [9] came to 5.

For the origin of these results see paper PMC3834827, “Crystal structure of the DdrB/ssDNA complex from Deinococcus radiodurans reveals a DNA binding surface involving higher-order oligomeric states” (Nucleic Acids Research, 2013).
